Measurements published in patent US20150191542A1 (INNATE PHARMA S A, published 2015).
Like-named read-outs stand apart in the source and are kept apart here.

How the values were obtained:
[1] = target: T1, MICA*007 expressed on C1R transfectant cells (human, UniProt Q29983 24-297, Glycosylated on cells; the letters do not carry this.); assay: flow cytometry, MFI against antibody concentration on C1R-MICA*07 cells
T1 construct: also called C1R-MICA*007; C1R-MICA*07
T1 chain: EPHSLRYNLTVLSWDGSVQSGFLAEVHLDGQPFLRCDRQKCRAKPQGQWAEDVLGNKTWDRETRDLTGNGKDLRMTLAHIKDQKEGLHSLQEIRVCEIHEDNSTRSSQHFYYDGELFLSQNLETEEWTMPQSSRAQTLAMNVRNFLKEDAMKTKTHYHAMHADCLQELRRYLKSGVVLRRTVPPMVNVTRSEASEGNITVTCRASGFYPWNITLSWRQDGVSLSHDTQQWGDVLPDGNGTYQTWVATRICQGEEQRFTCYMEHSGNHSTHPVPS
Experimental: (§1) The binding of antibodies obtained from the first and second immunization series (including 9C10, 20C6 and 16A8) were tested for binding to MICA-expressing CR1 transfectant cells C1R-MICA*001, C1R-MICA*004, C1R-MICA*007 and C1R-MICA*008 (Pr. A. Steinle, Eberhard-Karls University Tuebingen, Germany) described in Salih et al. (2003) Blood 102(4): […]. Binding was analyzed by flow cytometry.
(§2) Cells were harvested and stained in PBS 1×/BSA 0,2%/EDTA 2 mM buffer during 30 minutes at 4° C. using a dose-range of the anti-MICA mAbs. After two washes in staining buffer, cells were stained for 30 min at 4° C. with goat anti-mouse (H+L)-PE polyclonal antibodies (1/200). After two washes, stainings were acquired on a BD FACS Canto II and analyzed using the FlowJo software.

[2] = target: T2, MICA*001 expressed on transfected cells (human); assay: flow cytometry, MFI against antibody concentration on C1R-MICA*01 cells
T2 construct: the cells carry the complete allele; also called C1R-MICA*001; C1R-MICA*01
T2 chain: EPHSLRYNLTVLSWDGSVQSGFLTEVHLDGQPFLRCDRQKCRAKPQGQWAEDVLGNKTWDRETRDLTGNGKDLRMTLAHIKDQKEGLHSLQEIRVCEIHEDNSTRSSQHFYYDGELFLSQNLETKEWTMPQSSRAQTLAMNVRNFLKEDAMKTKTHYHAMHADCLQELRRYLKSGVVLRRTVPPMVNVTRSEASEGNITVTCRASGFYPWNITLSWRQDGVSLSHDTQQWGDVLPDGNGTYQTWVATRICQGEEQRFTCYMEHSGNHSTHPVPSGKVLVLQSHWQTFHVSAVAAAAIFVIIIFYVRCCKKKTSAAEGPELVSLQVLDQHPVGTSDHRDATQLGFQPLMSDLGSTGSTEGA
Experimental: as §1, §2

[3] = target: T3, MICA*004 expressed on C1R transfectant cells (human, UniProt Q29983 24-297, Glycosylated on cells; the letters do not carry this.); assay: flow cytometry, MFI against antibody concentration on C1R-MICA*04 cells
T3 construct: also called C1R-MICA*004; C1R-MICA*04
T3 chain: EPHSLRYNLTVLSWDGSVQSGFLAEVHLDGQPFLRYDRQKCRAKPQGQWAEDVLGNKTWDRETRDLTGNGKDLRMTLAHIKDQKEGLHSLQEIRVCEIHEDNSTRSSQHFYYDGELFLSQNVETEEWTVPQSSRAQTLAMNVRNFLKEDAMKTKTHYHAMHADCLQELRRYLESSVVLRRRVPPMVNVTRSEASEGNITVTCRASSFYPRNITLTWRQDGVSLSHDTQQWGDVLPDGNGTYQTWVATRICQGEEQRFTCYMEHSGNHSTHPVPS
Experimental: as §1, §2

[4] = target: T4, recombinant human MICA extracellular domain recombinant-Fc protein (MICA*019 allele) (human, UniProt Q29983 24-297); assay: SPR Biacore T100 (FIG. 1)
T4 construct: Bought from R&D Systems; also called MICA*019-Fc; MICA-Fc; not shown: Fc part of the bought fusion protein (R&D Systems)
T4 chain: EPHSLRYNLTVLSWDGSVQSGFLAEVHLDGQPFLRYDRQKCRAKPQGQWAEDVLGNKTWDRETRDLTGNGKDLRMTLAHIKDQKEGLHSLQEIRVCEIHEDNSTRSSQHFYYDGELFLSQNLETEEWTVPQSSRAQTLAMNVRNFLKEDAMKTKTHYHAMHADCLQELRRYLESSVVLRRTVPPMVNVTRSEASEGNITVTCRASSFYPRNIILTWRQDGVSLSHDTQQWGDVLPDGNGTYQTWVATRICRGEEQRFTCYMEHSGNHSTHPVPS
Experimental: The binding of 9C10, 20C6 and 16A8 to either recombinant human MICA extracellular domain recombinant protein monomers or dimers (MICA*019 allele-Fc protein or MICA*001-His protein) as well as other NKG2D ligands MICB and ULBP1-2 was analyzed by Surface Plasmon Resonance (SPR) using a Biacore T100 apparatus to obtain monovalent and bivalent affinity, respectively. Biotinylated anti-MICA antibodies were injected at a constant rate of 10 μl/min over the Sensor Chip CAP flow-cells comprising Biotin CAPture Reagent. MICA-Fc or MICA-His protein, MICB-Fc, ULBP1-Fc or ULBP2-Fc protein is then injected successively (range of concentrations between 0.01-100 nM), with regeneration between injections, and in increasing order over two flowcells simultaneously. Curves are fitted using Biacore T100 Evaluation software.
(a) General Biacore T100 methods. SPR measurements were performed on a Biacore T100 apparatus (Biacore GE Healthcare) at 25° C. In all Biacore experiments HBS-EP+ buffer (Biacore GE Healthcare) or 10 mM sodium acetate pH 7.4, 150 mM NaCl, 0.05% P20 served as running buffer and sensorgrams were analyzed with Biaevaluation 4.1 and Biacore T100 Evaluation software. Recombinant human and mouse TLR3 were purchased from R&D Systems.

[5] = target: T2, MICA*001 expressed on transfected cells; assay: flow cytometry on C1R-MICA*001 cells, 3-parameter logistic fit
Experimental: as §1, §2
(§3) Antibodies 9C10, 20C6 and 16A8 bound to each of the C1R-MICA*001, C1R-MICA*004, C1R-MICA*007 and C1R-MICA*008 cells (see FIGS. 3A, 3B and 3C for antibodies 9C10, 20C6 and 16A8 respectively). […] EC50 values are shown in Table C in μg/ml (calculated using a 3-parameter logistic fit).

[6] = target: T1, MICA*007 expressed on C1R transfectant …; assay: flow cytometry on C1R-MICA*007 cells, 3-parameter logistic fit
Experimental: as §1, §2, §3

[7] = target: T5, MICA*008 expressed on C1R transfectant cells (human, UniProt Q29983 24-297, Glycosylated on cells; the letters do not carry this.); assay: flow cytometry on C1R-MICA*008 cells, 3-parameter logistic fit
T5 construct: also called C1R-MICA*008; C1R-MICA*08
T5 chain: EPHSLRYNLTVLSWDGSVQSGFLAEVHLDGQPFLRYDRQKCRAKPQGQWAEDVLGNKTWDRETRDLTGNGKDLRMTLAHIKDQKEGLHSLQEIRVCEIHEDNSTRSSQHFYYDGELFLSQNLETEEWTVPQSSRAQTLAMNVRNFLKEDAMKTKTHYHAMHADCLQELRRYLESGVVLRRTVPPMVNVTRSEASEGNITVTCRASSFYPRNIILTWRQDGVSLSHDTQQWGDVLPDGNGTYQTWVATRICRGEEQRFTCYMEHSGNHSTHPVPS
Experimental: as §1, §2, §3

[8] = target: T3, MICA*004 expressed on C1R transfectant …; assay: flow cytometry on C1R-MICA*004 cells, 3-parameter logistic fit
Experimental: as §1, §2, §3

[9] = target: T5, MICA*008 expressed on C1R transfectant …; assay: flow cytometry, MFI against antibody concentration on C1R-MICA*08 cells
Experimental: as §1, §2

[10] = target: T5, MICA*008 expressed on C1R transfectant …; assay: as above
[11] = target: T3, MICA*004 expressed on C1R transfectant …; assay: flow cytometry, MFI against antibody concentration on C1R-MICA*04 cells
[12] = target: T1, MICA*007 expressed on C1R transfectant …; assay: flow cytometry, MFI against antibody concentration on C1R-MICA*07 cells

B1: antibody 20C6 (antibody, V domains shown)
VH: QITLKESGPGILKPSQTLSLTCSFSGFSLSTSGMGVGWIRQPSGKGLEWLAHIWWDDDKYYNPSLKSQLTISKDTSRNQVFLRITSVDTADTATYYCARRTQGYFDYWGQGTTLTVSS
VL: DIVMTQSPATLSVTPGDRVSLSCRASQSISDYLHWYQQKSHESPRLLIKYASQSISGIPSRFSGSGSGSDFTLSINSVEPEDVGVYYCQNGHSFPWTFGGGTKLEIK
notes: Murine hybridoma antibody of IgG1 isotype as tested
- EC50 (read off the curve) [1]: ~0.5 µg/mL
- EC50 (read off the curve) [2]: ~0.3 µg/mL
- EC50 (read off the curve) [3]: ~0.07 µg/mL
- binding result [4]: binds
- EC50 [5]: 0.3 µg/mL
- EC50 [6]: 1.58 µg/mL
- EC50 [7]: 0.17 µg/mL
- EC50 [8]: 0.08 µg/mL
- EC50 (read off the curve) [9]: ~0.2 µg/mL

B2: CHG1-M-MIA-15F9 (antibody, V domains shown)
VH: DVQLQESGPDLVKPSQSLSLTCTVTGYSITSGYSWHWIRQFPGNKLEWMGFIHYSGSTDYNPSLKSRISLTRDTSKNQFFLQLNSVSTEDTATYYCAKDYGHWYFDVWGAGTTVTVSS
VL: SIVMTQTPKFLLVSAGDRVTITCKASQSVSYDVAWYQQKPGQSPKLLIFYASNRYTGVPARFTGSGYGTDFTFTISTVQAEDLAVYFCQQDYSSLTFGAGTKLELK
- EC50 (read off the curve) [10]: ~0.8 µg/mL
- EC50 (read off the curve) [11]: ~0.5 µg/mL
- binding result [12]: binds

B3: CHG1-M-MIA-12A10 (antibody, V domains shown)
VH: QVQLQQSGADLVRPGASVRLSCRASGYSFTNYWMNWVKQRPGQGLEWIGMIHPSDSETRLNQKFKDKATLTVDKSSNTAYMQLSSPTSEDSAIYYCARDDFFTMDYWGQGTSVTVSS
VL: DILLTQSPAILSVSPGERVSFSCRASQNIVTSIHWYQQSTNGSPRLLIKYASESISGIPSRFSGSGSGTDFTLTINSVESEDVADYYCQQSNIWPLTFGAGTKLELK
- EC50 (read off the curve) [2]: ~1 µg/mL

B4: CHG1-M-MIA-18E8 (antibody, V domains shown)
VH: DVQLQESGPDLVNPSQSLSLICTVTGYSITSDYSWHWIRQFPGNKLEWMGNIHYSGRINYNPSLRSRISITRDTSKNQFFLQLISVTTEDTATYYCATRRTFGNFEDYWGQGTTLTVSS
VL: QIVLSQSPATLSVSPGEKVTMTCRSSSSVNYMHWYQQKPGSSPKPWIYATSTLASGVPARFSGSGSGTSYSLTISRVEAEDAATYYCQQWSSNPLTFGAGTKLELK
- EC50 (read off the curve) [2]: ~0.5 µg/mL

B5: CHG1-M-MIA-10F3 (antibody, V domains shown)
VH: QVQLQQSAAELARPGASVKMSCKASGYTFTSYTMHWVKQRPGQGLEWIGYINPSSGYTEYNQKFKDKTTLTVDKSSTTSYMQLSSLTSDNSAVYYCARGGDWDVDWFVYWGQGTLVTVSA
VL: QIVLTQSPAIMSASPGEKVTITCSASSSISYMHWFQQKPGTSPKLWIYSTSKLASGVPARFSGSGSGTSHSLTISRMEAEDAATYYCQHRSTYPFTFGSGTKLEIK
- EC50 (read off the curve) [2]: ~0.5 µg/mL
